From patent US11149077B2, “Targeted therapeutics based on engineered proteins for tyrosine kinases receptors, including IGF-IR” (BRISTOL-MYERS SQUIBB COMPANY, priority 2006, dated 2021)

B1: 385A08-PEG20-385A08: two 385A08 (SEQ ID NO: 203) domains coupled via Cys97 to a linear 20 kDa bifunctional PEG (conjugate)
chain 1: GVSDVPRDLEVVAATPTSLLISWSARLKVARYYRITYGETGGNSPVQEFTVPKNVYTATISGLKPGVDYTITVYAVTRFRDYQPISINYRTEIDKPCQ
chain 2: B1 chain 1
modifications: 20 kDa bifunctional PEG via Cys97
B2: 338A06 (protein)
chain: VSDVPRDLEVVAATPTSLLISWSARLKVARYYRITYGETGGNSPVQEFTVPKNVYTATISGLKPGVDYTITVYAVTKMRDYRPISINYRT

Columns and labels:
[1] = test system: RH41 sarcoma xenografts; assay: In vivo antitumor activity in RH41 sarcoma xenografts; details: 40 mg/kg, TIWx3, 20 ip
Experimental: *Tumor growth inhibition and probability values calculated on day 39. ^aVehicle was 80% PEG400, 20% dH2O. ^bVehicle was PBS. ^cAverage weight change for each group is the mean difference between weight at the start of treatment (Day 20) and after the end of treatment (Day 42). TVDT was calculated for a size of 500 mg Abbreviations used are as follows: po, oral route; ip, intraperitoneal route; LCK, gross log cell kill calculated as LCK=T−C/(3.32×TVDT) where T-C is the difference in time in days for the treated tumors (T) to reach a predetermined size (tumor target size) relative to the vehicle control group (C) divided by the tumor volume doubling time (TVDT) multiplied by 3.32.
Tumors were propagated in nude mice. Tumor passages occurred every four weeks for human RH41 xenografts. With regard to efficacy testing human tumor xenografts were implanted in nude mice. All tumor passages were subcutaneous (sc).
Antitumor activity was evaluated in terms of: a) cures, and for the murine tumor models, increases in lifespan reflected by the relative median survival time (MST) of treated (T) versus control (C) groups (i.e. % T/C values); and b) primary tumor growth inhibition determined by calculating the relative median times for T and C mice to grow tumors of a predetermined “target” size (1 gm for all sc tumor models described) and expressed as T-C values, in days. The definition of a cured mouse was one whose tumor was undetectable, or <35 mg, when assessed more than 10 tumor volume doubling times (TVDTs) post-treatment. The activity criterion for tumor inhibition/reduction was a statistically significant delay in primary tumor growth consistent with 1 gross log cell kill (LCK). The following formula was employed to calculate LCK: LCK=T−C/(3.32×TVDT)
Where, TVDT=median time (days) for control tumors to reach target size—median time (days) for control tumors to reach half the target size. […] The maximum tolerated dose (MTD) is defined as the dose level immediately […] which excessive toxicity (i.e. more than one death) occurred. […] Statistical evaluations of data were performed using Gehan's generalized Wilcoxon test (Gehan, Biometrika 52:203-223, 1965). Western Blot Analysis of 385A08-Fc

[2] = test system: human plasmacytoma cell line NCI-H929; assay: NCI-H929 cell proliferation assay (serum mediated proliferation); assay type: cell-based; details: at all concentrations tested
Experimental: The human plasmacytoma cell line NCI-H929 (ATCC, Manassas, Va.) was plated in 96 well plates at a concentration of either 10000 or 25000 cells per well in DMEM (Invitrogen, Carlsbad, Calif.) containing 10% fetal bovine serum (Hyclone, Logan, Utah) containing various concentrations of IGF-IR antagonists. Cells were allowed to proliferate for 72 hours at 37° C., 5% CO2. After the proliferation period, cells were exposed to 20 μL of Cell Titer 96 Aqueous Proliferation Reagent (Promega, Madison, Wis.) and allowed to incubate for an additional four hours. Absorbance at 490 nm was measured on a Spectramax Plus 384 (Molecular Devices, Sunnyvale, Calif.), and the resulting data were analyzed using SigmaPlot (Systat Software, Point Richmond, Calif.).

[3] = target: T1, human IGF-IR (Homo sapiens, UniProt P08069); assay: Surface plasmon resonance (BIAcore) binding kinetics and affinity on immobilized IGF-IR
T1 construct: The extracellular domain of human IGF-IR (aa 1-932) was cloned into a mammalian expression vector; made in house
Experimental: The binding kinetics of fibronectin-based scaffold proteins binding proteins to the target was measured using BIAcore 2000 or 3000 biosensors (Pharmacia Biosensor). A capture assay was developed utilizing an IGF-IR-Fc fusion. A similar reagent had been described by Forbes et al. (Forbes et al. 2002, European J. Biochemistry, 269, 961-968). The extracellular domain of human IGF-IR (aa 1-932) was cloned into a mammalian expression vector containing the hinge and constant regions of human IgG1. Transient transfection of the plasmid produced a fusion protein, IGF-IR-Fc which was subsequently purified by Protein A chromatography and captured on Protein A immobilized on Biasensor CM5 chips by amine coupling. The kinetic analysis involved the capture of IGF-IR-Fc on Protein A followed by injection of the fibronectin-based scaffold protein in solution and regeneration of the Protein A surface by glycine pH 2.0. Sensorgrams were obtained at each concentration and were evaluated using a program Biaevaluation, BIA Evaluation 2.0 (BIAcore), to determine the rate constants ka (kon) and kd (koff) The dissociation constant, KD was calculated from the ratio of rate constants koff/kon. Typically, a concentration series (2 uM to 0 uM) of purified fibronectin-based scaffold protein was evaluated for binding to protein A captured human IGF-IR-Fc fusion protein.

[4] = test system: human pancreatic adenocarcinoma cell line BxPC-3; assay: Cell mitogenesis assay: IGF-I-mediated proliferation, 3H-thymidine; assay type: cell-based; details: IGF-I-dependent proliferation, BxPC-3, 24 hour IGF-I exposure
Experimental: The purified, optimized IGF-IR clones were evaluated in cell-based assays in order to confirm activity.
The human pancreatic adenocarcinoma cell line BxPC-3 (ATCC, Manassas, Va.) was plated in 96 well plates at a concentration of 2500 cells per well in RPMI 1640 (Invitrogen, Carlsbad, Calif.) containing 10% fetal bovine serum (Hyclone, Logan, Utah). The following day, cells were washed in starvation medium consisting of RPMI 1640 containing 0.1% BSA (Sigma, St. Louis, Mo.). Washed cells were pre-incubated for four hours in starvation medium containing various concentrations of each IGF-IR antagonist. […] For the final four hours of incubation, cells were exposed to [^3H]-Thymidine (0.25 μCi/well; Perkin Elmer, Wellesley, Mass.). After the incubation period, cells were washed in PBS, lysed in 100 μL buffer consisting of 0.1% SDS+0.5 N NaOH, and counted on a TopCount NXT Scintillation Counter (Perkin Elmer, Wellesley, Mass.). The data were analyzed using SigmaPlot (Systat Software, Point Richmond, Calif.).

[5] = Differential scanning calorimetry (thermal stability, Tm); assay type: physicochemical; details: DSC (FIG. 8)
Experimental: Differential Scanning calorimetry (DSC) analysis of midscaled clones was performed to determine thermal stability. A 1 mg/ml solution of appropriate clone was scanned in a N-DSC II calorimeter (calorimetry Sciences Corp) by ramping the temperature from 5° C. to 95° C. at a rate of 1 degree per minute under 3 atm pressure. The data was analyzed vs. a control run of the appropriate buffer using a best fit using Orgin Software (OrginLab Corp).

[6] = Size-exclusion chromatography (solution properties, monomericity); assay type: physicochemical
Experimental: Size-exclusion chromatography (SEC) was performed using a TSKgel Super SW2000 column (TOSOH Biosciences, LLC), 4.6 mm×30 cm, on an Agilent 1100 HPLC system with UV detection at A214 nm and A280 nm and with fluorescence detection (excitation=280 nm, emission=350 nm). A buffer of 100 mM sodium sulfate, 100 mM sodium phosphate, 150 mM sodium chloride, pH 6.8 at a flow rate of 100 μL/min was employed. Samples (0.1 to 1 μg each) at a concentration of approximately 100 μg/mL were injected separately. Gel filtration standards (Bio-Rad Laboratories, Hercules, Calif.) were used for molecular weight calibration.

[7] = target: T2, human insulin receptor (Homo sapiens, UniProt P06213); assay: BIAcore binding to immobilized human insulin receptor; details: percentage of signal for insulin binding at similar concentration
T2 construct: purchased R&D Systems (Minneapolis, Minn.)
Experimental: One liter E. coli growths of selected optimized clones were prepared and the proteins were purified.
In brief, 60 ug/mL of IR diluted in acetate 4.5 was coupled/immobilized to a level of 8300 RU and 11.9 ug/mL of VEGF-R2-Fc diluted in acetate 5.0 was immobilized to a level of 9700 RU on flow cells 2 and 3. A blank reference surface was prepared on FC1. […] Fibronectin-based scaffold proteins were diluted to 10 uM in HBS-EP (10 mM Hepes 150 mM NaCl 3 mM EDTA 0.05% Surfactant P20) and injected at 20 uL/min for 3 minutes over the flow cells at 25 C and dissociation was observed over 10 mins.

[8] = Table 4, optimized 218C04 clones

Molecule | Outcome by (% TGI) [1] | % TGI ([1]; calculated on day 39) [%] | LCK ([1]; gross log cell kill) | inhibition of cell growth [2] | faster on-rate (ka) relative to unmodified 385A08 [3] | off-rate (kd) relative to unmodified 385A08 [3] | ka ([3]; Table 10, PEGylated variants) | kd ([3]; Table 10, PEGylated variants) | IC50 [4] [nM] | Kd [3, 8] [nM] | ka [3, 8] | kd [3, 8] | unfolding temperature (Tm) [5] [°C] | solution behaviour by SEC (monomer / aggregation) [6] | % IR Binding at 10 μM ([7]; Table 5) [%] | % IR Binding at 10 μM ([7]; Table 8) [%]
B1 | A (A % TGI value of >50% was considered active) | 66 | 0.6 | approximately 100% | approximately two-fold | slightly decreased | 15 1/M*s × 10^+6 | 0.9 1/s × 10^−4 | – | – | – | – | – | – | – | –
B2 | – | – | – | – | – | – | – | – | 10 to 20 | 0.069 | 2.2 1/M*s × 10^+6 | 4.3 1/s × 10^−4 | 62 | monomeric behavior | 2 | 0
